Test results taken from patent US9040462 (RIGEL PHARMACEUTICALS, dated 2015).

Biological target: Tet DNA binding domain only (UniProt P04483 1-207)
Assay: mammalian two-hybrid luciferase reporter, Phoenix cells

Sequence of Tet DNA binding domain only (P04483 whole entry, the tested form may be a part): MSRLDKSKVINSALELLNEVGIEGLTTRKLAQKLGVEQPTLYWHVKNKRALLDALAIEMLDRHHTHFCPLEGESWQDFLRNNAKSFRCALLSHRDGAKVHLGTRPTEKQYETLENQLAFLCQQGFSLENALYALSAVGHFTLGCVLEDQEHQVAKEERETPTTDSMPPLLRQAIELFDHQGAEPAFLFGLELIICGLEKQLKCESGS

B1: VP16 activation domain only (other)
chain: APPTDVSLGDELHLDGEDVAMAHADALDDFDLDMLGDGDSPGPGFTPHDSAPYGALDMADFEFEQMFTDALGIDEYGG
notes: also called pVACT
B1: no binding.
